Patent US20250011410A1 (INVETX, published 2025)
Substitutions are numbered along the chain they refer to. In names and notes the source's numbering stands.

B1: felinized clone 101 Fab-SASA variant N53I (VL) (Fab, V domains shown, not shown: small tags and cut ends)
VH: DVQLVESGGDLVKPGGSLRLTCVASGLSLTSSSMSWVRQAPGKGLQWVSTIYSNGGTYYTDSVKGRFTISKDNAENTLYLQMNNLKTEDTATYYCASIYYYDADYLHWYFDFWGQGALVTVSS
VL: EIQMTQSPTSLSASVGDRVTITCRASEGISNNLSWYQQTPGKAPKLLIYATSILHSGVPSRFSGSGSGTDFTLTISSLQPEDFATYYCQQGYKWPLTFGGGTKLEITR
B2: felinized clone 101 Fab-SASA variant T30R (VH) (Fab, V domains shown, not shown: small tags and cut ends)
VH: B1 VH with T30R
VL: B1 VL with I53N
B3: felinized clone 101 Fab-SASA variant N53V (VL) (Fab, V domains shown, not shown: small tags and cut ends)
VH: B1 VH
VL: B1 VL with I53V
B4: felinized clone 101 Fab-SASA variant S56T (VL) (Fab, V domains shown, not shown: small tags and cut ends)
VH: B1 VH
VL: B1 VL with I53N, S56T
B5: felinized clone 101 Fab-SASA variant S56E (VL) (Fab, V domains shown, not shown: small tags and cut ends)
VH: B1 VH
VL: B1 VL with I53N, S56E
B6: felinized clone 101 Fab-SASA variant S30P (VL) (Fab, V domains shown, not shown: small tags and cut ends)
VH: B1 VH
VL: B1 VL with S30P, I53N
B7: felinized clone 101 Fab-SASA variant T60S (VH) (Fab, V domains shown, not shown: small tags and cut ends)
VH: B1 VH with T60S
VL: B1 VL with I53N
B8: felinized clone 101 Fab-SASA variant S30V (VL) (Fab, V domains shown, not shown: small tags and cut ends)
VH: B1 VH
VL: B1 VL with S30V, I53N
B9: felinized clone 101 Fab-SASA variant T60D (VH) (Fab, V domains shown, not shown: small tags and cut ends)
VH: B1 VH with T60D
VL: B1 VL with I53N
B10: felinized clone 101 Fab-SASA variant S34G (VL) (Fab, V domains shown, not shown: small tags and cut ends)
VH: B1 VH
VL: B1 VL with S34G, I53N
B11: felinized clone 101 Fab-SASA variant S28H (VH) (Fab, V domains shown, not shown: small tags and cut ends)
VH: B1 VH with S28H
VL: B1 VL with I53N
B12: felinized clone 101 Fab-SASA variant S53P (VH) (Fab, V domains shown, not shown: small tags and cut ends)
VH: B1 VH with S53P
VL: B1 VL with I53N
B13: felinized clone 101 Fab-SASA variant Y52W (VH) (Fab, V domains shown, not shown: small tags and cut ends)
VH: B1 VH with Y52W
VL: B1 VL with I53N
B14: felinized clone 101 Fab-SASA variant N53L (VL) (Fab, V domains shown, not shown: small tags and cut ends)
VH: B1 VH
VL: B1 VL with I53L
B15: felinized clone 101 Fab-SASA variant T60H (VH) (Fab, V domains shown, not shown: small tags and cut ends)
VH: B1 VH with T60H
VL: B1 VL with I53N
B16: felinized clone 101 Fab-SASA variant T30N (VH) (Fab, V domains shown, not shown: small tags and cut ends)
VH: B1 VH with T30N
VL: B1 VL with I53N
B17: felinized clone 101 Fab-SASA variant S31H (VH) (Fab, V domains shown, not shown: small tags and cut ends)
VH: B1 VH with S31H
VL: B1 VL with I53N
B18: felinized clone 101 Fab-SASA variant S35V (VH) (Fab, V domains shown, not shown: small tags and cut ends)
VH: B1 VH with S35V
VL: B1 VL with I53N
B19: felinized clone 101 Fab-SASA variant S30Q (VL) (Fab, V domains shown, not shown: small tags and cut ends)
VH: B1 VH
VL: B1 VL with S30Q, I53N
B20: felinized clone 101 Fab-SASA variant S30Y (VL) (Fab, V domains shown, not shown: small tags and cut ends)
VH: B1 VH
VL: B1 VL with S30Y, I53N
B21: felinized clone 101 Fab-SASA variant S97M (VH) (Fab, V domains shown, not shown: small tags and cut ends)
VH: B1 VH with S97M
VL: B1 VL with I53N
B22: felinized clone 101 Fab-SASA variant S30A (VL) (Fab, V domains shown, not shown: small tags and cut ends)
VH: B1 VH
VL: B1 VL with S30A, I53N
B23: felinized clone 101 Fab-SASA variant S97H (VH) (Fab, V domains shown, not shown: small tags and cut ends)
VH: B1 VH with S97H
VL: B1 VL with I53N
B24: felinized clone 101 Fab-SASA variant S56D (VL) (Fab, V domains shown, not shown: small tags and cut ends)
VH: B1 VH
VL: B1 VL with I53N, S56D
B25: felinized clone 101 Fab-SASA variant S34A (VL) (Fab, V domains shown, not shown: small tags and cut ends)
VH: B1 VH
VL: B1 VL with S34A, I53N
B26: felinized clone 101 Fab-SASA variant S97Q (VH) (Fab, V domains shown, not shown: small tags and cut ends)
VH: B1 VH with S97Q
VL: B1 VL with I53N
notes: Fab-SASA in conditioned medium
B27: felinized clone 101 Fab-SASA variant N53K (VL) (Fab, V domains shown, not shown: small tags and cut ends)
VH: B1 VH
VL: B1 VL with I53K
B28: felinized clone 101 Fab-SASA variant S56N (VL) (Fab, V domains shown, not shown: small tags and cut ends)
VH: B1 VH
VL: B1 VL with I53N, S56N
B29: felinized clone 101 Fab-SASA variant N53M (VL) (Fab, V domains shown, not shown: small tags and cut ends)
VH: B1 VH
VL: B1 VL with I53M
B30: felinized clone 101 Fab-SASA variant R24F (VL) (Fab, V domains shown, not shown: small tags and cut ends)
VH: B1 VH
VL: B1 VL with R24F, I53N
B31: felinized clone 101 Fab-SASA variant S62D (VH) (Fab, V domains shown, not shown: small tags and cut ends)
VH: B1 VH with S62D
VL: B1 VL with I53N
B32: felinized clone 101 Fab-SASA variant S97T (VH) (Fab, V domains shown, not shown: small tags and cut ends)
VH: B1 VH with S97T
VL: B1 VL with I53N
notes: as for B26
B33: felinized clone 101 Fab-SASA variant S30L (VL) (Fab, V domains shown, not shown: small tags and cut ends)
VH: B1 VH
VL: B1 VL with S30L, I53N
B34: felinized clone 101 Fab-SASA variant T60E (VH) (Fab, V domains shown, not shown: small tags and cut ends)
VH: B1 VH with T60E
VL: B1 VL with I53N

target: T1, canine NGF tagged at the C-terminus with the Flag tag (canine, UniProt A0A8I3PYI3 122-241); assay: SPR off-rate screen, Fab-SASA on BSA chip
T1 construct: mature; Expressed with baculovirus technology; also called feline NGF (processed form identical)
T1 sequence (A0A8I3PYI3 entry or part of it): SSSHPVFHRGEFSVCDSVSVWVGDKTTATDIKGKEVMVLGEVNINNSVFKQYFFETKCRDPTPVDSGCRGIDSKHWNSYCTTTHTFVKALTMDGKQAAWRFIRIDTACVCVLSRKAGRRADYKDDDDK

Binder | Kd [nM] | Ratio WT-kd/clone-kd | koff [s⁻¹] | kon [M⁻¹ s⁻¹]
B1 | 1.41 | 2.42 | 0.000389 | 276000
B2 | 2.05 | 1.29 | 0.00073 | 357000
B3 | 1.42 | 2.32 | 0.000407 | 288000
B4 | 1.99 | 1.32 | 0.000714 | 358000
B5 | 2.19 | 1.17 | 0.000809 | 370000
B6 | 2.56 | 1.41 | 0.00067 | 262000
B7 | 1.76 | 1.65 | 0.000573 | 325000
B8 | 1.68 | 1.95 | 0.000483 | 287000
B9 | 1.93 | 1.66 | 0.000567 | 294000
B10 | 1.13 | 1.83 | 0.000514 | 456000
B11 | 2.55 | 1.18 | 0.000802 | 315000
B12 | 2.15 | 1.36 | 0.000695 | 323000
B13 | 1.5 | 1.45 | 0.000651 | 434000
B14 | 2.08 | 1.41 | 0.000667 | 321000
B15 | 1.8 | 1.68 | 0.000561 | 312000
B16 | 2.12 | 1.34 | 0.000704 | 333000
B17 | 1.98 | 1.54 | 0.000612 | 310000

Binder | Kd [nM] | Ratio WT-kd/clone-kd | koff [s⁻¹] | kon [M⁻¹ s⁻¹]
B18 | 1.17 | 2.62 | 0.00036 | 309000
B19 | 1.25 | 2.91 | 0.000324 | 259000
B20 | 2.2 | 1.21 | 0.000782 | 355000
B21 | 1.75 | 2.02 | 0.000466 | 266000
B22 | 1.05 | 3.23 | 0.000292 | 277000
B23 | 1.79 | 1.77 | 0.000533 | 297000
B24 | 2.03 | 1.25 | 0.000755 | 372000
B25 | 1.74 | 1.2 | 0.000783 | 450000
B26 | 1.36 | 2.34 | 0.000403 | 297000
B27 | 2.04 | 1.58 | 0.000596 | 292000
B28 | 2.64 | 1.04 | 0.000903 | 341000
B29 | 1.87 | 1.46 | 0.000648 | 346000
B30 | 2.28 | 1.44 | 0.000655 | 287000
B31 | 1.86 | 1.68 | 0.00056 | 301000
B32 | 1.88 | 1.32 | 0.000716 | 380000
B33 | 1.87 | 1.86 | 0.000507 | 270000
B34 | 2.38 | 1.38 | 0.000683 | 287000
